Measured values reported in patent US20250186614A1, “COMPACT DRUG RESPONSIVE DOMAINS FOR REGULATION OF FUNCTION/ABUNDANCE AND DELIVERY OF POLYPEPTIDE PAYLOADS” (OBSIDIAN THERAPEUTICS, INC., priority 2022, published 2025).
Where two headings read alike, the source gives them in different places.

What was measured:
[1] = Example 4: dose response of FKBP constructs 160-255, Ec50, Ec90 and fold change (raw and normalized to mCherry); type: cell-based; conditions: for FC (fold change): fold change during initial analysis
Method: Additional experiments were performed for constructs FKBP-160-292.

Jurkat cells = test: Tacrolimus dose response of FKBP13-AcGFP-mCherry constructs stably transduced into Jurkat cells, GFP MFI by flow cytometry; type: cell-based; parameters: Basal: unit not given here
Procedure, shortened: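 GFP geometric MFI was read by flow cytometry in mCherry+ cells and curve-fitted against tacrolimus dose. Cells were Jurkat E6-1, lentivirus-transduced with FKBP13-AcGFP-mCherry fusion constructs until 10-25% mCherry-positive on day 5 post-transduction.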

[2] = FKBP constructs 160-255, not normalized, read-out: EC90
[3] = normalized to mCherry, read-out: EC90 (Norm)

Row | Molecule | EC90 [1, 2] | FC (fold change) [1] | EC90 [1, 3] | also measured
1 | FKBP-162 (protein, C-terminal R deleted; Description of sequence: Construct Name: FKBP-162; Mutation(s): Q72R Q84E A117W DRD M54A del c-term R V85R) HCPIKSRKGDVLHAHYTGKLEDGTEFDSSLPRNQPFVFSLGTGERIKGWDQGLLGMCEGEKRKLVIPSELGYGERGWPPKIPGGATLVFEVELLKIE | 1800 nM | 46.6 | 1870 nM | –
2 | FKBP-203: FKBP13 DRD-AcGFP construct of Table 10 (protein, Description of sequence: Construct Name: FKBP-203; Mutation(s): Q72R Q84E A117W V85R DRD M54A P75L) HCPIKSRKGDVLHAHYTGKLEDGTEFDSSLPRNQLFVFSLGTGERIKGWDQGLLGMCEGEKRKLVIPSELGYGERGWPPKIPGGATLVFEVELLKIER | 657 nM | 66.0 | 747 nM | –
3 | FKBP-163 (protein, Description of sequence: Construct Name: FKBP-163; Mutation(s): Q72R Q84E A117W DRD M54A M96V V85R) HCPIKSRKGDVLHAHYTGKLEDGTEFDSSLPRNQPFVFSLGTGERIKGWDQGLLGVCEGEKRKLVIPSELGYGERGWPPKIPGGATLVFEVELLKIER | 756 nM | 29.4 | 1010 nM | –
4 | FKBP-212 (protein, Description of sequence: Construct Name: FKBP-212; Mutation(s): Q72R Q84E A117W V85R DRD M54A H53L) HCPIKSRKGDVLLAHYTGKLEDGTEFDSSLPRNQPFVFSLGTGERIKGWDQGLLGMCEGEKRKLVIPSELGYGERGWPPKIPGGATLVFEVELLKIER | 299 nM | 40.2 | 317 nM | –
5 | FKBP-204 (protein, Description of sequence: Construct Name: FKBP-204; Mutation(s): Q72R Q84E A117W V85R DRD M54A D90A) HCPIKSRKGDVLHAHYTGKLEDGTEFDSSLPRNQPFVFSLGTGERIKGWAQGLLGMCEGEKRKLVIPSELGYGERGWPPKIPGGATLVFEVELLKIER | 15200 nM | 37.9 | 15500 nM | –
6 | FKBP-259: FKBP13 DRD-AcGFP construct of Table 10 (protein, Description of sequence: Construct Name: FKBP-259; Mutation(s): Q72R Q84E A117W V85R DRD E130K) HCPIKSRKGDVLHMHYTGKLEDGTEFDSSLPRNQPFVFSLGTGERIKGWDQGLLGMCEGEKRKLVIPSELGYGERGWPPKIPGGATLVFKVELLKIER | – | – | – | Basal (Jurkat cells; FIG. 40): 72.3; FC (Jurkat cells; FIG. 40): 90; Peak (Jurkat cells; FIG. 40): 6232; Basal (Jurkat cells; FIG. 47, BR1 (Biorep 1)): 70.7; FC (Jurkat cells; FIG. 47, BR1 (Biorep 1)): 95.97; At 10 uM (Jurkat cells; FIG. 47, BR1 (Biorep 1)): 6785; Basal (Jurkat cells; FIG. 47, BR2 (Biorep 2)): 77.3; FC (Jurkat cells; FIG. 47, BR2 (Biorep 2)): 84.76; At 10 uM (Jurkat cells; FIG. 47, BR2 (Biorep 2)): 6552; FC (Jurkat cells; tacrolimus, FIGS. 29 and 30): 103; Fold Change (Jurkat cells; tacrolimus, Jurkat cells, Table 13): 103
7 | FKBP-210 (protein, Description of sequence: Construct Name: FKBP-210; Mutation(s): Q72R Q84E A117W V85R DRD M54A E98L) HCPIKSRKGDVLHAHYTGKLEDGTEFDSSLPRNQPFVFSLGTGERIKGWDQGLLGMCLGEKRKLVIPSELGYGERGWPPKIPGGATLVFEVELLKIER | 191 nM | 32.8 | 208 nM | –
8 | FKBP-206 (protein, Description of sequence: Construct Name: FKBP-206; Mutation(s): Q72R Q84E A117W V85R DRD M54A K135Y) HCPIKSRKGDVLHAHYTGKLEDGTEFDSSLPRNQPFVFSLGTGERIKGWDQGLLGMCEGEKRKLVIPSELGYGERGWPPKIPGGATLVFEVELLYIER | 573 nM | 50.1 | 550 nM | –
9 | FKBP-208 (protein, Description of sequence: Construct Name: FKBP-208; Mutation(s): Q72R Q84E A117W V85R DRD M54A E130R) HCPIKSRKGDVLHAHYTGKLEDGTEFDSSLPRNQPFVFSLGTGERIKGWDQGLLGMCEGEKRKLVIPSELGYGERGWPPKIPGGATLVFRVELLKIER | 4220 nM | 87.2 | 4120 nM | –
10 | FKBP-218 (protein, Description of sequence: Construct Name: FKBP-218; Mutation(s): Q72R Q84E A117W DRD M54A E61G K101G K135E) HCPIKSRKGDVLHAHYTGKLGDGTEFDSSLPRNQPFVFSLGTGEVIKGWDQGLLGMCEGEGRKLVIPSELGYGERGWPPKIPGGATLVFEVELLEIER | – | 4.46 | – | –
11 | FKBP-205 (protein, Description of sequence: Construct Name: FKBP-205; Mutation(s): Q72R Q84E A117W V85R DRD M54A L104V) HCPIKSRKGDVLHAHYTGKLEDGTEFDSSLPRNQPFVFSLGTGERIKGWDQGLLGMCEGEKRKVVIPSELGYGERGWPPKIPGGATLVFEVELLKIER | 183 nM | 30.1 | 184 nM | –
12 | FKBP-216 (protein, Description of sequence: Construct Name: FKBP-216; Mutation(s): Q72R Q84E A117W DRD M54A E61Y K101W K135Y) HCPIKSRKGDVLHAHYTGKLYDGTEFDSSLPRNQPFVFSLGTGEVIKGWDQGLLGMCEGEWRKLVIPSELGYGERGWPPKIPGGATLVFEVELLYIER | 14100 nM | 27.6 | 14500 nM | –
13 | FKBP-217 (protein, Description of sequence: Construct Name: FKBP-217; Mutation(s): Q72R Q84E A117W V85R DRD M54A E61Y K101W K135Y) HCPIKSRKGDVLHAHYTGKLYDGTEFDSSLPRNQPFVFSLGTGERIKGWDQGLLGMCEGEWRKLVIPSELGYGERGWPPKIPGGATLVFEVELLYIER | 16100 nM | 36.8 | 17500 nM | –
14 | FKBP-214: FKBP13 DRD-AcGFP construct of Table 10 (protein, Description of sequence: Construct Name: FKBP-214; Mutation(s): Q72R Q84G A117W V85R DRD P43R M54A) HCRIKSRKGDVLHAHYTGKLEDGTEFDSSLPRNQPFVFSLGTGGRIKGWDQGLLGMCEGEKRKLVIPSELGYGERGWPPKIPGGATLVFEVELLKIER | 388 nM | 51.0 | 390 nM | –
15 | FKBP-209: FKBP13 DRD-AcGFP construct of Table 10 (protein, Description of sequence: Construct Name: FKBP-209; Mutation(s): Q72R Q84E A117W V85R DRD M54A K101W) HCPIKSRKGDVLHAHYTGKLEDGTEFDSSLPRNQPFVFSLGTGERIKGWDQGLLGMCEGEWRKLVIPSELGYGERGWPPKIPGGATLVFEVELLKIER | 682 nM | 56.0 | 777 nM | –
16 | FKBP-213 (protein, Description of sequence: Construct Name: FKBP-213; Mutation(s): Q72R Q84G A117W DRD P43R M54A) HCRIKSRKGDVLHAHYTGKLEDGTEFDSSLPRNQPFVFSLGTGGVIKGWDQGLLGMCEGEKRKLVIPSELGYGERGWPPKIPGGATLVFEVELLKIER | 47.4 nM | 28.8 | 47 nM | –
17 | FKBP-211 (protein, Description of sequence: Construct Name: FKBP-211; Mutation(s): Q72R Q84E A117W V85R DRD M54A D62S) HCPIKSRKGDVLHAHYTGKLESGTEFDSSLPRNQPFVFSLGTGERIKGWDQGLLGMCEGEKRKLVIPSELGYGERGWPPKIPGGATLVFEVELLKIER | 452 nM | 35.7 | 481 nM | –
18 | FKBP-207 (protein, Description of sequence: Construct Name: FKBP-207; Mutation(s): Q72R Q84E A117W V85R DRD M54A I136V) HCPIKSRKGDVLHAHYTGKLEDGTEFDSSLPRNQPFVFSLGTGERIKGWDQGLLGMCEGEKRKLVIPSELGYGERGWPPKIPGGATLVFEVELLKVER | 311 nM | 35.4 | 302 nM | –
19 | FKBP-219 (protein, Description of sequence: Construct Name: FKBP-219; Mutation(s): Q72R Q84E A117W V85R DRD M54A E61G K101G K135E) HCPIKSRKGDVLHAHYTGKLGDGTEFDSSLPRNQPFVFSLGTGERIKGWDQGLLGMCEGEGRKLVIPSELGYGERGWPPKIPGGATLVFEVELLEIER | – | 5.4 | – | –
